B1: RNF115 peptide 69-84 (E3 ubiquitin-protein ligase RNF115), 16-mer library wild type / MDM2 SWIB (MDM2 SWIB/MDM2 domain, residues 17-125) (parent complex)
chain 1: THFAELWGHLDHTMFF
chain 2: SQIPASEQETLVRPKPLLLKLLKSVGAQKDTYTMKEVLFYLGQYIMTKRLYDEKQQHIVYCSNDLLGDLFGVPSFSVKEHRKIYTMIYRNLVVVNQQESSDSGTSVSEN

Variants of: B1
Assay: proteomic peptide phage display deep mutational scan (ProP-PD DMS): M13 P8 16-mer library selected against immobilised GST-tagged bait for four days (rounds), NGS of the eluted pools per day and pseudo-replica; bait immobilised on MaxiSorp plates (10 µg), library pre-cleared on GST, 2 h binding at 4 °C, five washes; one round per day, days 1-4; value from days 2 and 3
chain 1 T13V was tested, and the screen value was 0.0019 average fractional NGS count over selection days 2 and 3 (reads of this peptide / all reads for the bait, averaged over ….
In the case of chain 1 T13P, the screen value is reported as 0.000265 average fractional NGS count over selection days 2 and 3 (reads of this peptide / all reads for the bait, averaged over ….
In the case of chain 1 T13R, the screen value is reported as 0.00097 average fractional NGS count over selection days 2 and 3 (reads of this peptide / all reads for the bait, averaged over ….
For chain 1 T13H, the screen value was 0.00485 average fractional NGS count over selection days 2 and 3 (reads of this peptide / all reads for the bait, averaged over ….
With chain 1 A4M the screen value was 0.000942 average fractional NGS count over selection days 2 and 3 (reads of this peptide / all reads for the bait, averaged over ….
In the case of chain 1 A4T, the screen value is reported as 0.000121 average fractional NGS count over selection days 2 and 3 (reads of this peptide / all reads for the bait, averaged over ….
With chain 1 A4W the screen value was 0.000398 average fractional NGS count over selection days 2 and 3 (reads of this peptide / all reads for the bait, averaged over ….
With chain 1 A4V the screen value was 0.000584 average fractional NGS count over selection days 2 and 3 (reads of this peptide / all reads for the bait, averaged over ….
With chain 1 A4F the screen value was 0.000182 average fractional NGS count over selection days 2 and 3 (reads of this peptide / all reads for the bait, averaged over ….
With chain 1 A4P the screen value was 0.000473 average fractional NGS count over selection days 2 and 3 (reads of this peptide / all reads for the bait, averaged over ….
chain 1 A4S was tested, and the screen value was 0.00536 average fractional NGS count over selection days 2 and 3 (reads of this peptide / all reads for the bait, averaged over ….
In the case of chain 1 H9A, the screen value is reported as 0.00146 average fractional NGS count over selection days 2 and 3 (reads of this peptide / all reads for the bait, averaged over ….
chain 1 H9I was tested, and the screen value was 0.00113 average fractional NGS count over selection days 2 and 3 (reads of this peptide / all reads for the bait, averaged over ….
For chain 1 H9T, the screen value was 0.00161 average fractional NGS count over selection days 2 and 3 (reads of this peptide / all reads for the bait, averaged over ….
For chain 1 H9N, the screen value was 0.00523 average fractional NGS count over selection days 2 and 3 (reads of this peptide / all reads for the bait, averaged over ….
chain 1 H9R was tested, and the screen value was 0.00234 average fractional NGS count over selection days 2 and 3 (reads of this peptide / all reads for the bait, averaged over ….
chain 1 H9G was tested, and the screen value was 0.00212 average fractional NGS count over selection days 2 and 3 (reads of this peptide / all reads for the bait, averaged over ….
For chain 1 H9K, the screen value was 0.0135 average fractional NGS count over selection days 2 and 3 (reads of this peptide / all reads for the bait, averaged over ….
In the case of chain 1 H2G, the screen value is reported as 0.0014 average fractional NGS count over selection days 2 and 3 (reads of this peptide / all reads for the bait, averaged over ….
In the case of chain 1 H2E, the screen value is reported as 0.000801 average fractional NGS count over selection days 2 and 3 (reads of this peptide / all reads for the bait, averaged over ….
With chain 1 H2W the screen value was 0.000523 average fractional NGS count over selection days 2 and 3 (reads of this peptide / all reads for the bait, averaged over ….
chain 1 H2V was tested, and the screen value was 0.00468 average fractional NGS count over selection days 2 and 3 (reads of this peptide / all reads for the bait, averaged over ….
With chain 1 H2A the screen value was 0.000678 average fractional NGS count over selection days 2 and 3 (reads of this peptide / all reads for the bait, averaged over ….
With chain 1 H2I the screen value was 0.000473 average fractional NGS count over selection days 2 and 3 (reads of this peptide / all reads for the bait, averaged over ….
chain 1 H2Q was tested, and the screen value was 0.00104 average fractional NGS count over selection days 2 and 3 (reads of this peptide / all reads for the bait, averaged over ….
In the case of chain 1 H2N, the screen value is reported as 0.000593 average fractional NGS count over selection days 2 and 3 (reads of this peptide / all reads for the bait, averaged over ….
With chain 1 H2R the screen value was 0.000186 average fractional NGS count over selection days 2 and 3 (reads of this peptide / all reads for the bait, averaged over ….
With chain 1 L6A the screen value was 0.00179 average fractional NGS count over selection days 2 and 3 (reads of this peptide / all reads for the bait, averaged over ….
In the case of chain 1 L6V, the screen value is reported as 0.000773 average fractional NGS count over selection days 2 and 3 (reads of this peptide / all reads for the bait, averaged over ….
With chain 1 E5Y the screen value was 0.000681 average fractional NGS count over selection days 2 and 3 (reads of this peptide / all reads for the bait, averaged over ….
In the case of chain 1 E5N, the screen value is reported as 0.000269 average fractional NGS count over selection days 2 and 3 (reads of this peptide / all reads for the bait, averaged over ….
With chain 1 E5S the screen value was 0.00184 average fractional NGS count over selection days 2 and 3 (reads of this peptide / all reads for the bait, averaged over ….
With chain 1 E5V the screen value was 0.000931 average fractional NGS count over selection days 2 and 3 (reads of this peptide / all reads for the bait, averaged over ….
chain 1 F15D was tested, and the screen value was 0.00754 average fractional NGS count over selection days 2 and 3 (reads of this peptide / all reads for the bait, averaged over ….
In the case of chain 1 F15Y, the screen value is reported as 0.00151 average fractional NGS count over selection days 2 and 3 (reads of this peptide / all reads for the bait, averaged over ….
With chain 1 F15W the screen value was 0.00256 average fractional NGS count over selection days 2 and 3 (reads of this peptide / all reads for the bait, averaged over ….
With chain 1 F15R the screen value was 0.00042 average fractional NGS count over selection days 2 and 3 (reads of this peptide / all reads for the bait, averaged over ….
For chain 1 F15S, the screen value was 0.0126 average fractional NGS count over selection days 2 and 3 (reads of this peptide / all reads for the bait, averaged over ….
For chain 1 F15Q, the screen value was 0.0113 average fractional NGS count over selection days 2 and 3 (reads of this peptide / all reads for the bait, averaged over ….
For chain 1 M14P, the screen value was 0.00244 average fractional NGS count over selection days 2 and 3 (reads of this peptide / all reads for the bait, averaged over ….
For chain 1 M14Q, the screen value was 0.000925 average fractional NGS count over selection days 2 and 3 (reads of this peptide / all reads for the bait, averaged over ….
chain 1 M14F was tested, and the screen value was 0.000469 average fractional NGS count over selection days 2 and 3 (reads of this peptide / all reads for the bait, averaged over ….
chain 1 M14E was tested, and the screen value was 0.000177 average fractional NGS count over selection days 2 and 3 (reads of this peptide / all reads for the bait, averaged over ….
chain 1 M14H was tested, and the screen value was 0.0015 average fractional NGS count over selection days 2 and 3 (reads of this peptide / all reads for the bait, averaged over ….
For chain 1 H12S, the screen value was 0.00289 average fractional NGS count over selection days 2 and 3 (reads of this peptide / all reads for the bait, averaged over ….
chain 1 H12L was tested, and the screen value was 0.000337 average fractional NGS count over selection days 2 and 3 (reads of this peptide / all reads for the bait, averaged over ….
In the case of chain 1 H12G, the screen value is reported as 0.0011 average fractional NGS count over selection days 2 and 3 (reads of this peptide / all reads for the bait, averaged over ….
For chain 1 H12N, the screen value was 0.00222 average fractional NGS count over selection days 2 and 3 (reads of this peptide / all reads for the bait, averaged over ….
With chain 1 H12D the screen value was 0.00032 average fractional NGS count over selection days 2 and 3 (reads of this peptide / all reads for the bait, averaged over ….
In the case of chain 1 H12T, the screen value is reported as 0.00036 average fractional NGS count over selection days 2 and 3 (reads of this peptide / all reads for the bait, averaged over ….
chain 1 H12Q was tested, and the screen value was 0.000843 average fractional NGS count over selection days 2 and 3 (reads of this peptide / all reads for the bait, averaged over ….
For chain 1 H12M, the screen value was 0.00543 average fractional NGS count over selection days 2 and 3 (reads of this peptide / all reads for the bait, averaged over ….
In the case of chain 1 G8N, the screen value is reported as 0.00558 average fractional NGS count over selection days 2 and 3 (reads of this peptide / all reads for the bait, averaged over ….
chain 1 G8W was tested, and the screen value was 0.000927 average fractional NGS count over selection days 2 and 3 (reads of this peptide / all reads for the bait, averaged over ….
With chain 1 G8T the screen value was 0.00199 average fractional NGS count over selection days 2 and 3 (reads of this peptide / all reads for the bait, averaged over ….
For chain 1 G8A, the screen value was 0.000308 average fractional NGS count over selection days 2 and 3 (reads of this peptide / all reads for the bait, averaged over ….
chain 1 G8M was tested, and the screen value was 0.00018 average fractional NGS count over selection days 2 and 3 (reads of this peptide / all reads for the bait, averaged over ….
In the case of chain 1 G8R, the screen value is reported as 0.000199 average fractional NGS count over selection days 2 and 3 (reads of this peptide / all reads for the bait, averaged over ….
chain 1 G8H was tested, and the screen value was 0.00286 average fractional NGS count over selection days 2 and 3 (reads of this peptide / all reads for the bait, averaged over ….
In the case of chain 1 L10V, the screen value is reported as 0.000492 average fractional NGS count over selection days 2 and 3 (reads of this peptide / all reads for the bait, averaged over ….
In the case of chain 1 L10F, the screen value is reported as 0.00105 average fractional NGS count over selection days 2 and 3 (reads of this peptide / all reads for the bait, averaged over ….
In the case of chain 1 L10M, the screen value is reported as 0.00099 average fractional NGS count over selection days 2 and 3 (reads of this peptide / all reads for the bait, averaged over ….
In the case of chain 1 F3T, the screen value is reported as 9.19e-05 average fractional NGS count over selection days 2 and 3 (reads of this peptide / all reads for the bait, averaged over ….
For chain 1 D11Q, the screen value was 0.000111 average fractional NGS count over selection days 2 and 3 (reads of this peptide / all reads for the bait, averaged over ….
With chain 1 D11E the screen value was 0.000686 average fractional NGS count over selection days 2 and 3 (reads of this peptide / all reads for the bait, averaged over ….
For chain 1 D11P, the screen value was 0.000507 average fractional NGS count over selection days 2 and 3 (reads of this peptide / all reads for the bait, averaged over ….
chain 1 D11T was tested, and the screen value was 0.000142 average fractional NGS count over selection days 2 and 3 (reads of this peptide / all reads for the bait, averaged over ….
In the case of chain 1 D11A, the screen value is reported as 0.0112 average fractional NGS count over selection days 2 and 3 (reads of this peptide / all reads for the bait, averaged over ….
With chain 1 D11S the screen value was 0.00405 average fractional NGS count over selection days 2 and 3 (reads of this peptide / all reads for the bait, averaged over ….
For chain 1 D11Y, the screen value was 0.000538 average fractional NGS count over selection days 2 and 3 (reads of this peptide / all reads for the bait, averaged over ….
With chain 1 T1D the screen value was 0.000599 average fractional NGS count over selection days 2 and 3 (reads of this peptide / all reads for the bait, averaged over ….
With chain 1 T1F the screen value was 0.000233 average fractional NGS count over selection days 2 and 3 (reads of this peptide / all reads for the bait, averaged over ….
chain 1 T1M was tested, and the screen value was 0.0023 average fractional NGS count over selection days 2 and 3 (reads of this peptide / all reads for the bait, averaged over ….
In the case of chain 1 T1V, the screen value is reported as 0.00156 average fractional NGS count over selection days 2 and 3 (reads of this peptide / all reads for the bait, averaged over ….
In the case of chain 1 T1H, the screen value is reported as 0.00126 average fractional NGS count over selection days 2 and 3 (reads of this peptide / all reads for the bait, averaged over ….

Source: PMC12102759 (2025)
